From patent publication US20250215092A1 (ZHEJIANG NANOMAB TECHNOLOGY CENTER, published 2025)
Each block holds one binder with its values, some of them ahead of it.

Legend:
[1] = molecular target: T1, human EGFR.His antigen (Acro, Cat #EGR-H522a) (human, UniProt P00533 25-645); test: competition ELISA: EGFR his tag protein coated, antibody titrated together with Human EGF-mouse IgG2a Fc, bound EGF detected with HRP anti-mouse IgG, unit taken from the concentration axis (paragraph 62 says nM); OD450 falls only from about 2.4 to about 2.0-2.2 [table]
T1 construct: extracellular domain; Bought protein; also called EGFR his tag protein; full-length EGFR extracellular domain protein; not shown: His tag
Procedure: Briefly, EGFR his tag protein was diluted with PBS to 2 μg/mL, and 100 μL of the antigen was added to each well of an ELISA plate and coated overnight at 4° C. The next day, the plates were washed twice with PBST (containing 0.5% TWEEN-20), and then blocked with 3% BSA at 37° C. for 1.5 h, followed by two washes with PBST. […] VHH-IgG4 antibodies were diluted to 2000 nM and then serially diluted 4-fold for 8 gradients. […] After washing 3 times, HRP goat anti-mouse IgG (Goat anti-Mouse IgG) (H+L) antibody (Abcam, cat #ab205719) diluted at 1:3000 was added to each well, and the plate was incubated at 37° C. for 40 min. The plates were then washed 3 times with PBST, and 100 μL of TMB substrate was added to each well and allowed to react for 3-5 min. The reaction was stopped by adding 100 μL of 3N hydrochloric acid per well. After stopping the reaction, the optical density at 450/650 nm was measured using a Tecan microplate reader. The dose-response curve was plotted, and the IC50 was calculated using GraphPad Prism 8.0 software.

[2] = molecular target: T2, EGFR on SKOV3 and Aspc-1 tumor cells (human, UniProt P00533); test: flow cytometry on Aspc-1 tumor cells, anti-human IgG PE, MFI, curve fit; unit from the concentration axis and paragraph 62; the curve is barely above Isotype 2: MFI at most about 1500 [table]
T2 construct: endogenous, on the cell surface; the cell line is named under assay; also called tumor cell EGFR
Procedure: Two kinds of tumor cells, SKOV3 and Aspc-1, expressing EGFR were respectively plated in 96 well plates, with 3×10⁵ cells per well, and then the tumor cells were incubated with gradient diluted VHH-IgG4 antibody. After incubation on ice for half an hour, anti human IgG PE (Jackson Immuno Research, Code: 109-117-008, Lot:145501) was added for incubation, and then CytoFLEX flow cytometry was used for detection. The EC50 of the antibody was calculated by curve fitting.

IC50 [1]: 0.152 µg/mL
B1: E007 VHH-IgG4 antibody (antibody, V domains shown, not shown: a dimerising Fc or GST)
VH: EVQLVESGGGLVQPGGSLRLSCEASGFSFSDHTMRWHRQAAGKNLELVAYITPAGDIIKYADSVQGRFTISRDNAKNMLYLQMDSLRPDDTAVYRCNALVSAAVRASDYWGQGTQVTVSS

EC50 [2]: 3.6 nM
B2: E004 VHH-IgG4 antibody (antibody, V domains shown, not shown: a dimerising Fc or GST)
VH: EVQLVESGGGLAQSGGSLRLACEASGFPFETYAMSWARQTPGNEPEWVAGIFPDGKHTAYAHSVKGRFTISRVNANNTVYLQMDSLKPEDTAVYYCAKDLPFFATPSFYIGYWGQGTLVTVSS
